Bridges are numbered along the chain shown (N, C = ends). Where no end group is shown, it is not given here. [ ]: non-standard residue; d: D form. MPEG5000 = polyethyleneglycol of 5000 molecular weight, attached to the N-terminal Cys; dPen = CC(C)(S)[C@@H](N)C(=O)O
B1: SEQ ID NO 39 (peptide)
peptide: [dC]SWLDV[dC]-OH
modifications: disulfide 1-7; N-terminus assumed
SMILES: CC(C)C[C@@H]1NC(=O)[C@H](Cc2c[nH]c3ccccc23)NC(=O)[C@H](CO)NC(=O)[C@H](N)CSSC[C@H](C(=O)O)NC(=O)[C@H](C(C)C)NC(=O)[C@H](CC(=O)O)NC1=O
B2: SEQ ID NO 10 (peptide)
peptide: {CH2CO}-EWLDVC-OH
modifications: thioether N-6; also: sulfide, sulfoxide or sulfone not given here
notes: also called CH2CO-Glu-Trp-Leu-Asp-Val-Cys-acid
B3: SEQ ID NO 7 (peptide)
peptide: GPEFLDV
modifications: cyclic: lactam formed by condensation of the N and C terminus
notes: Head-to-tail cyclic lactam; also called Gly-Pro-Glu-Phe-Leu-Asp-Val
B4: SEQ ID NO 41 (peptide)
peptide: MPEG5000-CWLDVC-OH
modifications: disulfide 1-6
notes: Disulfide cyclic peptide; also called MPEG5000-Cys-Trp-Leu-Asp-Val-Cys-acid
B5: SEQ ID NO 35 (peptide)
peptide: [dC]EWLDVC-OH
modifications: disulfide 1-7; N-terminus assumed
SMILES: CC(C)C[C@@H]1NC(=O)[C@H](Cc2c[nH]c3ccccc23)NC(=O)[C@H](CCC(=O)O)NC(=O)[C@H](N)CSSC[C@@H](C(=O)O)NC(=O)[C@H](C(C)C)NC(=O)[C@H](CC(=O)O)NC1=O
notes: Disulfide cyclic peptide; also called dCys-Glu-Trp-Leu-Asp-Val-Cys-acid
B6: SEQ ID NO 40 (peptide)
peptide: CPEWLDVC-OH
modifications: disulfide 1-8; N-terminus assumed
SMILES: CC(C)C[C@@H]1NC(=O)[C@H](Cc2c[nH]c3ccccc23)NC(=O)[C@H](CCC(=O)O)NC(=O)[C@@H]2CCCN2C(=O)[C@@H](N)CSSC[C@@H](C(=O)O)NC(=O)[C@H](C(C)C)NC(=O)[C@H](CC(=O)O)NC1=O
notes: Disulfide cyclic peptide
B7: SEQ ID NO 3 (peptide)
peptide: cyclo(EWLDVD)
modifications: not fully specified (residue 3)
notes: Head-to-tail cyclic lactam; also called Glu-Trp-Leu-Asp-Val-Asp
B8: SEQ ID NO 42 (peptide)
peptide: [dPen]WLDVC-OH
modifications: disulfide 1-6; N-terminus assumed
SMILES: CC(C)C[C@@H]1NC(=O)[C@H](Cc2c[nH]c3ccccc23)NC(=O)[C@H](N)C(C)(C)SSC[C@@H](C(=O)O)NC(=O)[C@H](C(C)C)NC(=O)[C@H](CC(=O)O)NC1=O
notes: Disulfide cyclic peptide; also called dPen-Trp-Leu-Asp-Val-Cys-acid
B9: SEQ ID NO 4 (peptide)
peptide: EWLDV
modifications: cyclic: lactam formed by condensation of the N and C terminus
notes: Head-to-tail cyclic lactam; also called Glu-Trp-Leu-Asp-Val
B10: SEQ ID NO 5 (peptide)
peptide: EWLDD
modifications: cyclic: lactam formed by condensation of the N and C terminus
notes: Head-to-tail cyclic lactam; also called Glu-Trp-Leu-Asp-Asp
B11: SEQ ID NO 38 (peptide)
peptide: CEFLDYC-OH
modifications: disulfide 1-7; N-terminus assumed
SMILES: CC(C)C[C@@H]1NC(=O)[C@H](Cc2ccccc2)NC(=O)[C@H](CCC(=O)O)NC(=O)[C@@H](N)CSSC[C@@H](C(=O)O)NC(=O)[C@H](Cc2ccc(O)cc2)NC(=O)[C@H](CC(=O)O)NC1=O
notes: Disulfide cyclic peptide; also called Cys-Glu-Phe-Leu-Asp-Tyr-Cys-acid
B12: SEQ ID NO 9 (peptide)
peptide: SWLDVC-OH
modifications: thioether (positions not given here); not fully specified (N-terminus, bridges); printed as CH2CO-Ser-Trp-Leu-Asp-Val-Cys-acid; also: sulfide, sulfoxide or sulfone not given here
notes: also called CH2CO-Ser-Trp-Leu-Asp-Val-Cys-acid
B13: SEQ ID NO 6 (peptide)
peptide: EWLDVPEWLDV
modifications: cyclic: lactam formed by condensation of the N and C terminus
notes: Head-to-tail cyclic lactam
B14: fusion protein of the two N-terminal domains of human VCAM with the hinge, CH2 and CH3 regions of mouse IgG2A (Fc fusion, UniProt P19320 25-220, looked up)
chain: FKIETTPESRYLAQIGDSVSLTCSTTGCESPFFSWRTQIDSPLNGKVTNEGTTSTLTMNPVSFGNEHSYLCTATCESRKLEKGIQVEIYSFPKDPEIHLSGPLEAGKPITVKCSVADVYPFDRLEIDLLKGDHLMKSQEFLEDADRKSLETKSLEVTFTPVIEDIGKVLVCRAKLHIDEMDSVPTVRQAVKELQVY
notes: domain: two N-terminal domains; Secreted from transfected COS cells and captured on Dynal magnetic beads coated with goat anti-mouse IgG; also called VCAM-1; purified VCAM; not shown: mouse IgG2A hinge, CH2 and CH3 regions, amplified from cDNA of the hybridoma cell line 402C10

Target: integrin α4β1 (human) (UniProt P13612)
Assay: inhibition of HL-60 cell (α4β1) binding to VCAM-IgG coated beads, fluorimetry

Chain of integrin α4β1 (human) (P13612 34-1032, chain 1 of 2): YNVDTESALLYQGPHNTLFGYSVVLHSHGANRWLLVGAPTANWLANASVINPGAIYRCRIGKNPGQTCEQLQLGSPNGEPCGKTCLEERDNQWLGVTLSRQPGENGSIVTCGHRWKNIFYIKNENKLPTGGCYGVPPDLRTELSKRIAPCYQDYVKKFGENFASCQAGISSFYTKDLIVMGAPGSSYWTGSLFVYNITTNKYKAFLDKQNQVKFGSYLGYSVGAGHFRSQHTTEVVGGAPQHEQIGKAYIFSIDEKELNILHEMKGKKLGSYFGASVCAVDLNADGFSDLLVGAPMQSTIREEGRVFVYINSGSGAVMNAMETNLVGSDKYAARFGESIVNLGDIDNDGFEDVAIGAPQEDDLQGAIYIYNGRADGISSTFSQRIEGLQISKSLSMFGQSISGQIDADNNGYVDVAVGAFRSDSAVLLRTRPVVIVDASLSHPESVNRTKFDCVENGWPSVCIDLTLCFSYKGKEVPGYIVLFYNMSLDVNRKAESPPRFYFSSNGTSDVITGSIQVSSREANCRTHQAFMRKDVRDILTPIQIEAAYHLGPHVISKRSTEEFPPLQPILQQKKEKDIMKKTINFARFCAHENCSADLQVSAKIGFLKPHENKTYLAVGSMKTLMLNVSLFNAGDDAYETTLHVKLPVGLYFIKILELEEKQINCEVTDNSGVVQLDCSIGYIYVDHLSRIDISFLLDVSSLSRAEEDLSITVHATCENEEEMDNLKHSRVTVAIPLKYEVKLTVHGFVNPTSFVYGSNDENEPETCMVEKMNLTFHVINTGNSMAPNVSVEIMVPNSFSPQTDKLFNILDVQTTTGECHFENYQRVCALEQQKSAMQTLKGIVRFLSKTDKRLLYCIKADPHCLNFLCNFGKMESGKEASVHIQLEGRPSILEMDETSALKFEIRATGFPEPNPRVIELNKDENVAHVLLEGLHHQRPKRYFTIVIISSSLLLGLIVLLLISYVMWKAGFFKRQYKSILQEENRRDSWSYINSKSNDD
Chain of integrin α4β1 (human) (P05556 21-798, chain 2 of 2, further chain): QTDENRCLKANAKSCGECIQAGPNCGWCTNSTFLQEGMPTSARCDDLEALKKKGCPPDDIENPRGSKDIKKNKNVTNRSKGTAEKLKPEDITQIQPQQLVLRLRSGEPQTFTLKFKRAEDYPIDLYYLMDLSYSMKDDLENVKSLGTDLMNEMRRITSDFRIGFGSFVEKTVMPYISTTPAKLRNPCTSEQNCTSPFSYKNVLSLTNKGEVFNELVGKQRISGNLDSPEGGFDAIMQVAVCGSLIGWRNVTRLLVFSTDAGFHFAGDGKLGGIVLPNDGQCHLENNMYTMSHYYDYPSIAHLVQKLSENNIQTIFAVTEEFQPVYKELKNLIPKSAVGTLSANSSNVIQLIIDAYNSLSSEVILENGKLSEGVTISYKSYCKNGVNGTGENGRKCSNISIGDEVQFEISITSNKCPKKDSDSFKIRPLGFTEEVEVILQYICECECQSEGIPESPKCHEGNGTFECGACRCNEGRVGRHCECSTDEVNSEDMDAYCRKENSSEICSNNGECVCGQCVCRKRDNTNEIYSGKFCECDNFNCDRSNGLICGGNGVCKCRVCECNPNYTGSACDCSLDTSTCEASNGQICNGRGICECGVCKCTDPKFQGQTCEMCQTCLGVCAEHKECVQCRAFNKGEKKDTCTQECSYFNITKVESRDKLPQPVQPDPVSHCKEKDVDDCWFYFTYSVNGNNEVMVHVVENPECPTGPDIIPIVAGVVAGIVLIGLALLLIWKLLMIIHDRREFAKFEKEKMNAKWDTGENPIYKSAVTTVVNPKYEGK

peptide concentration that significantly inhibits binding [µM] | Binder
< 10 | B1

Target: T1, integrin α4β1 (human, UniProt P13612 34-1032; P05556 21-798)
T1 construct: whole, on cells; also called VLA-4; very late antigen-4
Assay: as above
Protocol: (§1) The media was collected and active protein was purified by immunoprecipitation using Dynal magnetic polystyrene beads coated with goat anti-mouse IgG. Following immunoprecipitation, the beads bound cells that expressed the integrin α_4β_1 such as Ramos and HL-60.
HL-60 cells were fluorescently labeled with Calcein AM C-3099 (Molecular Probes) and resuspended in 1 ml of binding buffer (Hank's balanced salt solution, pH 7.4, 1.0 mM CaCl_2, 1.0 mM MgCl_2). The beads (10 µl, 4×10^6 beads/ml) were placed in wells of a 96-well microtiter dish with 10 µl of peptide at various concentrations. The beads were incubated with 10 µl of labeled cells (10^7 cells/ml) for 10 min at room temperature. Following immobilization of the beads onto the plastic with a magnet, unbound cells were removed by washing three times with binding buffer. The remaining bound cells were lysed in 50 mM Tris, pH 7.4, 5.0 mM EDTA, 1.0% NP-40 and quantitated by fluorimetry using a Millipore Cytofluor 2350 fluorimeter. Dose response curves were calculated and IC$50$ values determined. Alternatively, the percent adhesion was determined at a single peptide concentration for comparison among peptides.

T1 sequence (P13612 34-1032, chain 1 of 2): as the sequence (P13612 34-1032, chain 1 of 2) above
T1 sequence (P05556 21-798, chain 2 of 2): as the sequence (P05556 21-798, chain 2 of 2, further chain) above

peptide concentration that significantly inhibits binding [µM] | Binder
< 10 | B2
< 10 | B3
< 10 | B4
< 10 | B5
< 10 | B6
< 10 | B7
< 10 | B8
< 10 | B9
< 10 | B10
< 10 | B11
< 10 | B12
< 10 | B13

Target: T1, integrin α4β1
Assay: VCAM-IgG fusion on goat anti-mouse IgG magnetic beads; binding of Ramos and HL-60 cells
From the text: as §1

binding result | Binder
binds | B14

Reference: patent US6713604 (TEXAS BIOTECHNOLOGY, dated 2004)
